{"source": "the DeepSol protein solubility set"}
{"assay": "soluble on expression in E. coli; label from the status in PepcDB or PDB records"}
{"sequence": "MELKNKKWTDEEFHKQREEVLQQWPTGKEVDLQEAVDYLKKIPAEKNFAEKLVLAKKKGITMAQPRAGVALLDEHIELLRYLQDEGGADFLPSTIDAYTRQNRYDECENGIKESEKAGRSLLNGFPGVNFGVKGCRKVLEAVNLPLQARHGTPDSRLLAEIIHAGGWTSNEGGGISYNVPYAKNVTIEKSLLDWQYCDRLVGFYEEQGVHINREPFGPLTGTLVPPSMSNAVGITEALLAAEQGVKNITVGYGECGNMIQDIAALRCLEEQTNEYLKAYGYNDVFVTTVFHQWMGGFPQDESKAFGVIVTATTIAALAGATKVIVKTPHEAIGIPTKEANAAGIKATKMALNMLEGQRMPMSKELETEMAVIKAETKCILDKMFELGKGDLAIGTVKAFETGVMDIPFGPSKYNAGKMMPVRDNLGCVRYLEFGNVPFTEEIKNYNRERLQERAKFEGRDVSFQMVIDDIFAVGKGRLIGRPE", "soluble on expression in E. coli": "soluble"}
{"sequence": "MELLCHEVDPVRRAVRDRNLLRDDRVLQNLLTIEERYLPQCSYFKCVQKDIQPYMRRMVATWMLEVCEEQKCEEEVFPLAMNYLDRFLAGVPTPKSHLQLLGAVCMFLASKLKETSPLTAEKLCIYTDNSIKPQELLEWELVVLGKLKWNLAAVTPHDFIEHILRKLPQQREKLSLIRKHAQTFIALCATDFKFAMYPPSMIATGSVGAAICGLQQDEEVSSLTCDALTELLAKITNTDVDCLKACQEQIEAVLLNSLQQYRQDQRDGSKSEDELDQASTPTDVRDIDL", "soluble on expression in E. coli": "not soluble"}
{"sequence": "MELLFLGTGAGIPAKARNVTSVALKLLEERRSVWLFDCGEATQHQMLHTTIKPRKIEKIFITHMAGDHVYGLPGLLGSRSFQGGEDELTVYGPKGIKAFIETSLAVTKTHLTYPLAIQEIEEGIVFEDDQFIVTAVSVIHGVEAFGYRVQEKDVPGSLKADVLKEMNIPPGPVYQKIKKGETVTLEDGRIINGNDFLEPPKKGRSVVFSGDTRVSDKLKELARDCDVMVHEATFAKEDRKLAYDYYHSTTEQAAVTAKEARAKQLILTHISARYQGDASLELQKEAVDVFPNSVAAYDFLEVNVPRGKLAAALEHHHHHH", "soluble on expression in E. coli": "soluble"}
{"sequence": "MELLSIQNLTKVYKVPAGFLRKKNFFALKEVSLSIKQGDFLAIVGESGSGKSTLGKIILRLEKPTKGKVSFKGKDIFSMGKEYTRKVSAVFQDPRSSLNPRMKVEEILEEPLIVHRVKGRKERVLKVLQRVRLSEELLEKRPLQISGGQAQRVAIARALILEPELIVADEPTASLDVSVQEEILELFKELNSKGISFFFVTHDIRVVEKVANMVGVIYAGILMELGKKEEVLKNPLHPYTKFLLENVPVRHPKDRKPLKYLQEEEVSIPEEGCPFYPRCPEAMEECKKFIRRSEVNGRLLACNLY", "soluble on expression in E. coli": "soluble"}
{"sequence": "MELMIGRVVKSHGIRGEVAIEVTTEEPEIRFAQGEVLNGRQGGKEHSLTIASVRPHQNRLLVKFKEIADRTAADSLRGTRFFAAPLDDDVDDGFYDHELEGLAVIHGEEKIGEVSGVIHGPAQSLLEVTLESGKEVLIPFVHDIVPEVDLDAGTCVITPPEGLLELLEHHHHHH", "soluble on expression in E. coli": "soluble"}
{"sequence": "MELNDMAQFNEPISSQLLAIDENLTQLVTDIDILSSVNPLNYAQERERFISNKYSQEPNFQYQKAPLDTHQSKRRLYELPLEHIEDTQLQKLYEDVIQSYADKLDQVNTIGTQEFLYNSLRYYGEPSAKDIANAHFILHLPTEEESKPEHDSRSIAHFMQSFADKNGYECEIQILDGMLANALVSGSRVKINSAAHITTDELEALAHHEMGVHLLTTLNGRQQPLKVLSLGCPANTNTQEGLAILCEYLSGHFSIKRLRTLALRVLAVESMIKERDFRHTFMLLKEQYKASDVQAFTITSRVYRGGGLTKDYLYLRGFREVLNAYDKLGDDFSLLLCGKTELKYFDLIRSLVNKGIFTQPKFISPALSTPKQTNPIHRYIVSALKLEHHHHHH", "soluble on expression in E. coli": "soluble"}
{"sequence": "MELQEVLRMNGGEGDTSYAKNSAYNQLVLAKVKPVLEQCVRELLRANLPNINKCIKVADLGCASGPNTLLTVRDIVQSIDKVGQEKKNELERPTIQIFLNDLFPNDFNSVFKLLPSFYRKLEKENGRKIGSCLIGAMPGSFYSRLFPEESMHFLHSCYCLQWLSQVPSGLVTELGIGTNKGSIYSSKASRLPVQKAYLDQFTKDFTTFLRIHSEELFSHGRMLLTCICKGVELDARNAIDLLEMAINDLVVEGHLEEEKLDSFNLPVYIPSAEEVKCIVEEEGSFEILYLETFKVLYDAGFSIDDEHIKAEYVASSVRAVYEPILASHFGEAIIPDIFHRFAKHAAKVLPLGKGFYNNLIISLAKKPEKSDM", "soluble on expression in E. coli": "soluble"}
{"sequence": "MELVYMDGKKEPYTTSEIIAECAEVQHHTITRLIRENKADFEELGILGFKIHKLDTRGQPKKSYILNEQQATFLITYLKNTETVRQFKLNLVKAFFEMREELSEIRLQRALEKPKRKTLHDSIETWPNAPKHAHSTMNNLLLKAVTDMNAKQLREERGGYNGIDSLTSEELEQYQAFEDMAIAMIELKMSYQEIKTMMFRSKKIS", "soluble on expression in E. coli": "not soluble"}
{"sequence": "MEMEHINENTIRVLIGNEDLADRGITFLDLLGNHKDVENFFYSILEEVDVEDEFQGSEAVTFQVLPKNDGLELFISKNVAMDDLSSLEGLSEVNADVSELIRKQIEADKAAADELDEMEATDETNRNVIFELDNFEAMIQLSKEVFMQSVLTNLYTYNDRYYLQVLFLTDELEKTNVDNEIAQILEFAHKTTVTQDTLVEYGTCIMERSALELTRYYFND", "soluble on expression in E. coli": "not soluble"}
{"sequence": "MEMKGINNIRIDDRLIHGQVATMWSNKLGVTRLMVVNDNVAKNDLQKQVLRMAVPAGISSSIITEETAISNIKNGKYEGQNVLMIVKSPVDLLPFIENDLEIKRINVGNMSNRNNTTVLRPNISVTDEERSAFEKLLSRDIEITTIMTPDDKKTFLKDIL", "soluble on expression in E. coli": "not soluble"}
{"sequence": "MEMRQPAVAGQFYPLRCENLENELKRCFEGLEIREQEVLGAVCPHAGYMYSGKVAAHVYATLPEADTYVIFGPNHTGYGSPVSVSRETWKTPLGNIDVDLELADGFLGSIVDADELGHKYEHSIEVQLPFLQYRFERDFKILPICMGMQDEETAVEVGNLLADLISESGKRAVIIASSDFTHYETAERAKEIDSEVIDSILNFDISGMYDRLYRRNASVCGYGPITAMLTASKKLGGSRATLLKYANSGDVSGDKDAVVGYAAIIVELEHHHHHH", "soluble on expression in E. coli": "soluble"}
{"sequence": "MENIHDLWERALKSMEKKVSKPSFETWLKQTKANSIEDSTIIITAPNEFARDWLEKHYDELISETIDDLTGVRLYPKFVIPTSQLDEPFVEQELKKPMKQPPAQNGEMPNNMLNDKYTFDTFVIGSGNRFAHAASLAVAEAPAKAYNPLFIYGGVGLGKTHLMHAIGHYVMDHNPNAKVVYLSSEKFTNEFINAIRDNKAVNFRNKYRNVDVLLIDDIQFLAGKEQTQEEFFHTFNALHEDNKQIVISSDRPPKEIPTLEDRLRSRFEWGLITDITPPDLETRIAILRKKAKAENLDIPNEVMLYIANQIDTNIRELEGALIRVVAYSSLINQDMNADLAAEALKDIIPNAKPRVLTITDIQKTVGEYFHVKLEDFKAKKRTKSVAFPRQIAMYLSRELTDASLPKIGSEFGGRDHTTVIHAHEKISKLLSTDQELQDKIQDISDKLRSLEHHHHHH", "soluble on expression in E. coli": "soluble"}
{"sequence": "MENKKSFFHLHLISDSTGETLMSAGRAVSAQFHTSMPVEHVYPMIRNQKQLAQVIDLIDKEPGIVLYTIVDQQLAEFLDLRCHAIGVPCVNVLEPIIGIFQTYLGAPSRRRVGAQHALNADYFARIEALNFAMDHDDGQMPETYDDADVVIIGISRTSKTPTSIYLANRGIKTANIPVVPNVPLPESLYAATRPLIVGLVATSDRISQVRENRDLGTTGGFDGGRYTDRATIMEELKYARALCARNNWPLIDVTRRSIEETAAAILALRPRTRLEHHHHHH", "soluble on expression in E. coli": "soluble"}
{"sequence": "MENLKIRYIDTRKIGTVSGVKVPVKKGYKIVVEDEEKGEDIVEVLGYSREESKNGIQPRFVRVANKRDLEIFKKNMRESERAFEICKEKIKEHGLDMHLLKAYIPLNRKKVFFYYLAEERVDFRNLVRDLAKIFKRRIEMRQIGVRDAVQMKGWIGRCMRETCCSQFMENFQSISLRDITEQNLPLSPSKFTGPCGRLVCCMAFERENYLLKILFPEPGTKLCYNKQEVTLLEVDPLRETVVLQYDELGKKVELGVRDMLPKGYEKALEHCRSCQFCCRRVYEEATEHEIVKSSAELEHHHHHH", "soluble on expression in E. coli": "not soluble"}
{"sequence": "MENRESAQRPHERLDAWRDSMELVEMIYRLTEVFPDQERYGLTAQLRRAAVSIPSNIAEGAARRSTPDYSRFLSIARGSLSELDTQVQIAARLGYSRSEDDQSVRRQVDLVFAKLTALMNALRRRGAA", "soluble on expression in E. coli": "soluble"}
{"sequence": "MEQEFFFPPPKKSDGPVVACVVEKKGDGTRTSMRQNEIYAYSAQIRTGDGCMVMPKIHWNSFEPSDWVSCTLEYVNKANQIKEKEMLEISKVPAENFDRFGMPPTRFENGIVQIKTLFVACPEFIKNRETRNAYGSYKKLFILNIGLGFVSTRRTADGNLAEKVKNGDVYTGIFEFRAKDNGAINFNHRGRVRDETNHVIERDAMWELTKTSSVAATDVQKKQMKEAIEQLRKDAEQFEREFKDSQSRPVAPMLPPNEISENRKEINLGLALPSRHSQPSIRTVDVVTTTPAQMMPTASSFRIPFAQVSKAPVVAPSSQLQQQQQQPCSSNQTARIGNFLERDQVRGNLLGVPLSSSTPRGSPELLRRREVTADDGNITSNTAVMLRDNNANPMNRRRPS", "soluble on expression in E. coli": "not soluble"}
{"sequence": "MEQKYEEDIQKLQQEIEMLEAEQEETLRSIFVQHGDRLQQGVKSACEERGGGGAQQHTLSKLITEVRELEKDLRRQTEINGITLNECFVKTLHKSERKLIQQLRLAGHCGLLLFQVEFAVTEIQEDNVLHRRVTELNIVVDGVEFKDFSAFVSRVEDTKDLLLFFRTLRTFSERCEDRRQTFQHFQEKYPDVVNLPEGCRSEIMIIRSPQLPGISMTLFWKIHVSKEGVVKPLLDLLLKMPDQALELDTKKVMEKASDYFQSLLQLLGVEASIEGLIRTVCS", "soluble on expression in E. coli": "not soluble"}
{"sequence": "MEQPYVYAYPQGSGPSGAPTPQAGGVVVDPKYCAPYPIDMAIVRKMMSLTDGNFVITDVNGNLLFKVKEPVFGLHDKRVLLDGSGTPVVTLREKMVSMHDRWQVFRGGSTDQRDLLYTVKRSSMLQLKTKLDVFLGHNKDEKRCDFRVKGSWLERSCVVYAGESDAIVAQMHRKHTVQSVFLGKDNFSVTVYPNVDYAFIASLVVILDDVNREDRAA", "soluble on expression in E. coli": "soluble"}
{"sequence": "MEQTLKITSVLSDPTRFHIYEYIAKVHREVSVQEIAEKFHIHPNVARLHLTKLEDVRMVVSDTQKTGKGGRPSRLYRLSDEVIGLYFPFRDYQLLARIAIQTMAKLGPIGSEALRETGKRFGRELIASRLPHNGAASALTMADKIAIMEEAAEAAGFLPQLHYDEEKGVLYLDIFNCPFKEIAAQAPDTVCGMHHSFLEGMVETLFAGAEVTETENMMEGSHRCAYRIVIRP", "soluble on expression in E. coli": "not soluble"}
{"sequence": "MERFDAVIIGAGAAGMFCAAQAGQAGSRVLLIDNGKKPGRKILMSGGGRCNFTNLYVEPAAYLSQNPHFCKSALARYTQWDFIDLVGRYGIAWHEKTLGQLFCDDSAQRIVDMLVAECDKGGVTMRLRSEVLSVERDESGFVLALNGETVTTQKLVIASGGLSMPGLGASPFGYKIAEQFGLKVLPTRAGLVPFTLHKPLLEQLQTLSGVSVPCVITARNGTVFRENLLFTHRGLSGPAVLQISSYWQPGELVSINLLPDLSLEDVLNEQRNAHPNQSLKNTLAMHLPKRLVECLQQLGLIPDVSLRQLNVRDQQTLVDTLTAWQVQPNGTEGYRTAEVTLGGVDTNELSSRTMEARRVPGLYFIGEVMDVTGWLGGYNFQWAWSSAWACAQDLIALKIN", "soluble on expression in E. coli": "soluble"}
{"sequence": "MERLFKHICLVARHSKPGITPALMQLANHLAAGGATVLIDKESVTPDEANGYPLIDRTDMGKLADLCIVLGGDGTMLSIARLLAPYRVPLVGINQGRLGFMTDIPLHEMLDSVDAILHGKFVPEDRILLQAAVVREDAEVASALAFNDVVFSRGAVGSMIEFEVFIDNQFVYSQRSDGLIVSTPTGSTAYSLASGGPILHPTLQAIALVPICPQSLSNRPIAVNDSCEVEFMLTRGLDARVHFDGQLHCDLMEMDRVLIRRYRNPLRILHPEGYNYYDMLRHKLHWGERLILEHHHHHH", "soluble on expression in E. coli": "soluble"}
